KR20230083068A (dated 2023)

How the values were obtained:
[1] = target: T1, 비오틴 펩타이드-6xHis-tagged HCoV-OC43 N 단백질 (HCoV-OC43 N 단백질-Bio-His6) (HCoV-OC43, UniProt P33469 1-448)
T1 chain: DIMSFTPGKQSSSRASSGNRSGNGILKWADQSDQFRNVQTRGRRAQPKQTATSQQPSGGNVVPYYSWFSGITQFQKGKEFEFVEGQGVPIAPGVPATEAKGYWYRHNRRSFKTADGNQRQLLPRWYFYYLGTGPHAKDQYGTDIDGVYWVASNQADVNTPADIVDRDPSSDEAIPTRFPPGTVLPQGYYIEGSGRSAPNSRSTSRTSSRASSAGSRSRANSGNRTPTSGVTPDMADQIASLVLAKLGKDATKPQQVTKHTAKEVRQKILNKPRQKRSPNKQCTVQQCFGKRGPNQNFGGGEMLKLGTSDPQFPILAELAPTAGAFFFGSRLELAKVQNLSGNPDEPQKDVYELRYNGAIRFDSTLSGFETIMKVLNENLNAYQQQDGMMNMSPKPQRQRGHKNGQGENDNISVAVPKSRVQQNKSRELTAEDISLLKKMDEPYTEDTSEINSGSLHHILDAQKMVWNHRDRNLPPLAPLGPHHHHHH

[2] = target: MERS-CoV N 단백질 (MERS-CoV 감염 Vero 세포 용해물) (MERS-CoV, UniProt K9N4V7 1-411); test: western blot of infected Vero cell lysates
[3] = target: SARS-CoV-2 N 단백질 (SARS-CoV-2 감염 Vero 세포 용해물) (SARS-CoV-2, UniProt P0DTC9 1-419); test: western blot of infected Vero cell lysates

B1: 항-HCoV-OC43 N 단백질 특이적 단클론 항체 (클론 1C7D7 mAb) (antibody, V domains shown)
VH: EVKLEQSGGGLVKPGGSLKLSCAASGFSFSSHTMSWVRQTPEKRLEWVATITSGGTYTYYPDSVKGRFTISRDNAKNTLYLQMTSLKSEDTAMYYCTRGQEADGYYVPFAYWGQGTLVTVSA
VL: DIVMTQSPSSLAVSVGEKVTMSCKSSQSLLYSSNQKNYLAWYQQKPGQSPKLLIFWASTRESGVPDRFTGSGSGTDFTLTISSVQAEDLAVYYCKQSYNLRTFGGGTKLEIKR
notes: also called anti-HCoV-OC43 N monoclonal antibody
[1]
  EC50: ~1.2 nM
[2]
  binding result: no binding
[3]
  binding result: no binding
